The values that follow come from article PMC5992148, “Molecular principles underlying dual RNA specificity in the Drosophila SNF protein”.

In series [1] the target is T1, dSNF1-101 (RRM1) (UniProt P43332 1-101).
T1 sequence: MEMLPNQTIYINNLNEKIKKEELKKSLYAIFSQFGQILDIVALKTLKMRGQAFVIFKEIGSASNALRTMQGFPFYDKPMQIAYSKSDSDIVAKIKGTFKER
Briefly: NMR chemical shift perturbation; 300 uM protein, 700 uM RNA; ITC: 150 mM KCl, 1 mM MgCl2, 20 mM HEPES-NaOH pH 7.5, 5% glycerol, 10 C; NMR: 50 mM KCl, 20 mM sodium cacodylate pH 6.5, 2 mM EDTA, 23 C; filter binding: KCl varied, other conditions not stated. To be noted: protein: recombinant; tags: none stated; hairpin.

Series [2] concerns the target Drosophila U2A′ (dU2A′), triple cysteine variant, produced apart from dSNF (Drosophila melanogaster) (UniProt Q9V4Q8). The series is described as follows: ITC; dU2A′ as the sample (2.5 µM), dSNF^1-101 as titrant (25 µM); 22 °C; 50 mM KCl, 100 mM arginine, 10 mM sodium cacodylate, pH 6.5 (methods) or pH 7 (results).
For series [3], the target named is T2, dSNF1-96 (RRM1) (Drosophila melanogaster, UniProt P43332 1-96).
T2 sequence: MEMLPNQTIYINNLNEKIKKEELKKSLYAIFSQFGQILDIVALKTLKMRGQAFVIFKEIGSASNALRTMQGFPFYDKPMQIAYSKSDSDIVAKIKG
Briefly: ITC; 1 mM Mg2+, 10 C; n 0.894; ITC: 150 mM KCl, 1 mM MgCl2, 20 mM HEPES-NaOH pH 7.5, 5% glycerol, 10 C; NMR: 50 mM KCl, 20 mM sodium cacodylate pH 6.5, 2 mM EDTA, 23 C; filter binding: KCl varied, other conditions not stated. To be noted: protein: recombinant; tags: N-terminal His6, TEV-cleaved; hairpin, 10-nt loop, 9-bp blunt stem.

Series [4] concerns the target T2, dSNF1-96 (RRM1). Briefly: crystal structure; 2.0 A; ITC: 150 mM KCl, 1 mM MgCl2, 20 mM HEPES-NaOH pH 7.5, 5% glycerol, 10 C; NMR: 50 mM KCl, 20 mM sodium cacodylate pH 6.5, 2 mM EDTA, 23 C; filter binding: KCl varied, other conditions not stated. Conditions: protein: recombinant; tags: N-terminal His6, TEV-cleaved; hairpin, blunt, 10-nt loop.
Series [5] concerns the target T1, dSNF1-101 (RRM1). Briefly: filter binding; without dU2A'; ITC: 150 mM KCl, 1 mM MgCl2, 20 mM HEPES-NaOH pH 7.5, 5% glycerol, 10 C; NMR: 50 mM KCl, 20 mM sodium cacodylate pH 6.5, 2 mM EDTA, 23 C; filter binding: KCl varied, other conditions not stated. Conditions: protein: recombinant; tags: none stated; label: 32P internal; hairpin.
Series [6] deals with T2, dSNF1-96 (RRM1). The series is described as follows: ITC; 1 mM Mg2+, 10 C; n 0.781; ITC: 150 mM KCl, 1 mM MgCl2, 20 mM HEPES-NaOH pH 7.5, 5% glycerol, 10 C; NMR: 50 mM KCl, 20 mM sodium cacodylate pH 6.5, 2 mM EDTA, 23 C; filter binding: KCl varied, other conditions not stated. To be noted: protein: recombinant; tags: N-terminal His6, TEV-cleaved; hairpin, 11-nt loop, U:G closing pair, blunt.

B1: dU1SLII (T7, NMR) (structured_RNA)
RNA: GGCCGGCAUUGCACCACGCGCCGGGUCC
As to B1, in the series with dSNF1-101 (RRM1) [1], the binding result is given as “binds”.

B2: Drosophila melanogaster SNF RRM1, residues 1-101 (dSNF^1-101) (domain or fragment)
chain: MEMLPNQTIYINNLNEKIKKEELKKSLYAIFSQFGQILDIVALKTLKMRGQAFVIFKEIGSASNALRTMQGFPFYDKPMQIAYSKSDSDIVAKIKGTFKER
For B2, in series [2], the Kd came to 4.2 nM and the dH is -241 kcal/mol.

B3: dU1SLII (ITC) (structured_RNA)
RNA: CCAGGACGCAUUGCACCUCGCGUCCUGG
As to B3, the dissociation constant (Kd) with dSNF1-96 (RRM1) [3] is 34 nM.

B4: dU1SLII 22-mer (crystal) (structured_RNA)
RNA: GGCCGCAUUGCACCUCGCGGCC
B4: the binding result with dSNF1-96 (RRM1) [4] is given as “binds”.

B5: dU2SLIV G10A (structured_RNA)
RNA: GGCCGGUAUUACAGUACCGCCGGGUCC
As to B5, the binding signal with dSNF1-101 (RRM1) [5] was 1000 fold lower affinity than wt N6.

B6: dU2SLIV G13C (structured_RNA)
RNA: GGCCGGUAUUGCACUACCGCCGGGUCC
For B6, the binding signal with dSNF1-101 (RRM1) [5] was 16 fold higher affinity than wt N6.

B7: dU2SLIV G13A (structured_RNA)
RNA: GGCCGGUAUUGCAAUACCGCCGGGUCC
Regarding B7, the binding signal with dSNF1-101 (RRM1) [5] is 200 fold lower affinity than wt N6.

B8: dU2SLIV (ITC) (structured_RNA)
RNA: CCAGGACGUAUUGCAGUACCGCGUCCUGG
As to B8, the Kd with dSNF1-96 (RRM1) [6] is 782 nM.
